Molecular target: antigen bound by the GC4 antibody on GBM tumor sphere cells (target antigen not determined)
Assay: FACS on GBM tumor sphere cells at RT, MFI fitted (apparent dissociation constant)

B1: recombinant human GC4 IgG1 (antibody, V domains shown)
VH: QVQLVESGGGLVQPGGSLRLSCAASGFTFGTYDMSWVRQAPGKGLEWVSGISGSGGSTYYADSVKGRFTISRDNSKNTVYLQMNSLRVEDTAVYYCARGGWYSDNWGQGTLVTVSS
VL: SELTQDPAVSVALGQTVRITCQGGSLRSYYASWYQQKPGQAPLLVIYGENNRPSGIPDRFSGSSSGNTASLTITGAQAEDEADYYCHSRDSSGNHVVFGGGTKLTV
**Q.** With B1 as the binder, how does the Kd read?
**A.** The Kd was 79.7 nM.

— patent publication US20120039915A1
